A protein production outcome set (Wang et al. 2014)

Experiment: label from the status in PepcDB records

Which protein production does the source give for “MSTYTARLGGRTHSFPSLAALLAAASPERSGDRLAGLAADSAEARVAARWALAEVPLARFLAEPVIPYEDDDVTRLIVDTHDARAFAPVAGLCVGEFREWLLSDAADAGSLAALAPGLTPEMVAAVSKLMGNADLVAVARKARVVTAFRSTIGLPGRLATRLQPNHPTDDPAGVAAALLDGLLLGSGDAVIGINPATDSPKAVRDLLELLDGVIRRYAIPTQSCVLCHVTTSIDLMERGAPVDLVFQSIAGTQAANASFGVTLGLLDEAYDAARGLGRGTAGQNALYFETGQGSALSANAHHGVDQQTVEARAYAVARRYDPLLVNTVVGFIGPEYLYDGRQILRAALEDHFCGKLLGLPMGLDICYTNHADADDDDIATMLTMLGVAGASFVICTPGGDDIMLNYQSASYHDALYLREVLGLRPAPEFEDWLSRIGLLDDAGAIRDVTGTAHPLTAIGRELAA” here?
The protein production was “failed”.

With “MSVADSYFDELFRNNDDPWAFKQRWYERRKRALTLAALPRERYRAIFEPGCANGELSADLAERCDMLVCCDTSTQAVELARQRLADVPHARVVQARLPHQWPAGQFDLIVFSELGYYLDAADLHRLIDCALAALSPDGQLLACHWRPDIEGCPLNAQAVHAILAERLSMHRLFSHHEQDFLLDLWSRDGTSVAELEHHHHHH” as the sequence, how does the protein production read?
The protein production was “not failed”.

Which protein production does the source give for “MSVDAVEIETLRKTVEDYFCFCYGKALGKSTVVPVPYEKMLRDQSAVVVQGLPEGVAFKHPENYDLATLKWILENKAGISFIIKRPFLEPKKHVGG” here?
Its protein production is “not failed”.

Which protein production does the source give for “MSVEAAKNARELLLKEYRAVLSTHSKKWPGFPFGSVVPYCLDAEGRPLILISRIAQHTHNLQADPRCSMLVGERGAEDIQAVGRLTLLAEARQLAEEEVAAAAERYYRYFPESADYHRVHDFDFWVLQPVQWRFIGGFGAIHWLAAERVPLANPFAGEAERGMVEHMNSDHAAAIAHYVELAGLPAHAAAQLAGIDTEGFHLRIGQGLHWLPFPAACGNPGAVRQALVQLARAERWPTVEPEQG” here?
The protein production was “not failed”.

For “MSVEQLNQLNIEELIITLENVLKILKQYSKVSNSSITFKEFVDYWFEAYASTAVKPSTQKRYRQLLKPALRAIGNKPLNKVKPLDIQNIYIALAGTQSNCTILKLHRLLHEIFKHAQMWEYISDNPVKKVVPPTPEKKVFDVWDVETAKRFLEIIKDEPIYYPALIALHTGMRAGEILSLKWCDVNFETRVISIVKSERKNRGLKTVNLKTKTSKRAVYMNDILYKELKNLYEITKPKPDDFVCPRLPTGNLTVNYLSRKFKKLVKKHNFPLIRFHDLRHTFATLMLSLGVNTKIVAEILGHSDIKLTADTYSHVLPTMQEEAMKEFVKLWK”, which protein production is on record?
The protein production was “failed”.

With “MSVFSGFPASPPDAILNLTVLYNADTNPKKVNLGVGAYRDESGKPWILPAVKEAEAIISSDLSKYNKEYPPVAGFPLFLEAAQFLMFGKDSKAAQEGRIASCQSLSGTGSLHIGFEFLHLWMPKAEFYMPSTTWPNHYGIYDKVFNKLKVPYKEYTYLRKDGELEIDFSNTKKDIQSAPEKSIFLFHACAHNPSGIDFTEAQWKELLPIMKEKKHIAFFDSAYQGFATGSFEADAFAVRMFVDAGVEVLVAQSFSKNFGLYGERIGCLHVVHAGVEGSVEKNKALSAAMVSGMTLQIRKTWSMSAIHGAYIVQVIVHDKRLLQMFYDNVKEMSARIHRMRSLLHASLAKRKTPGPGSKGTWDHILTAIGMFTFTGLTPEHVDYLKEKWSIYLVKAGGRMSMCGLTESNCDYVAEAIHDAVTKLPFKK” as the sequence, how does the protein production read?
Its protein production is “not failed”.

Which protein production does the source give for “MSVGIDSLDNDHKKLIAILAQLMSAKNEKLGQDDIDVIFERLEGYCLSHFAREEALLAKIDYKQLEAHKLSHQAFIKKIPQLKEQWFAKVTESEAVKDKIILFLQQWLIKHILEEDLDYVPAIHCFQEFSRYEKDKKAKHPWLRFFSIKLSHCLILSHRVLITTLLPVAAVLLLCFFILKDNYQRYDSISKVLGLNSVIEQVNGISHSLQAERGLSTGYTSSNYRSFAKQLRQRRKSTDAKIQYFLWLLEQSANQEIKVSVSRYMTNFQEIVANLSRHRMHLDQKIVGFEETYHAYTQLIGQLLSVSDHLVHIEIGSSHANDISAINAILRYKEFMGQIRAIGMKMAENHQENIYGNVEVSLLIGKQLNTLLIFKNAANSAQKSICGHYCDAFALRQHLESSYLETMQFEDKDVRAARWFKVMSAKVDNLNSVVQRLINEFDGQIYIESQKLKKEGYLIILAMLIFLLVAIFFALVLNYSIISPVRKLTYALNDMSEGQNNIHFNHIDSKDEIGSMQLAFEKLRRKLLQGDVYKATVSQQQKEIKYRKSQQDHFQQLALTDALTGAVNRHHFNEVLDQEIANVNNHGSPLSIMLLDIDHFKSVNDRYGHGVGDEVLVMFYQTCVEAVRSSDVVARIGGEEFVIIMPNTQLVNAQKFAERLRQKIAKLELNIANNQISVTVSIGVSQWQSEYFTNAETFVAHADKSLYQAKNSGRNKVVVAQQ” here?
The protein production was “failed”.

Which protein production does the source give for “MSVGVEVLTISFVVIVIAAVIGFLARSKNVSLEQWAVGGRNIGALLIWFLLAGEIYTAFTFLGVPGYAYAFGAPAYYALSYGVLAYLTSYFILPKIWRISKKKNIMTQPDFFKERYQSTLLATIVAVVGVVFMVPYLELQVSAITDILEVMGYNVIMPAYVMIITFVLTAGYVIMNGLRSATFTAFFKDGLALIVIFSALIVIPAVQFGDLNNMMHRMVTNYSEYLYFPGHSELGLSWFVSVVLMSALGFFMWPHSFQSYISAKNDNVLKKNAVFLPVYNVLLVITVFMGFAALLYNPHLSNADDAFLIVARASFPSWWNGVVAGAITLGSMVPASVLLIASSTIISKNLYKDLINKKASDSSVKFIAQVFVAIITGVALLFAIEFPALFVNLLLLGYSGITLFFPGIVMGITWRKVTAVGVISGIITGLIVNAVFFLPLSSYSHIIYPGLVGLFADTVVTILVSLVTKAPSGEVIEEFVTA” here?
The protein production was “failed”.

With “MSVIKIEKALKLDKVIFVDVRTEGEYEEDHILNAINMPLFKNNEHNEVGTIYKMQGKHEAIQKGFDYVSYKLKDIYLQAAELALNYDNIVIYCARGGMRSGSIVNLLSSLGVNVYQLEGGYKAYRNFVLEY” as the sequence, how does the protein production read?
Its protein production is “not failed”.

Which protein production does the source give for “MSVILLGLGRYVEEIVEVVSAISDVVLVERDEARLRAFLEKAPVANLRALPGSATDVGLWKEVDLEAAEAVISFLSVEATLDVARLLRKALGYRSKIVHVSKARPDPQAVRELDLEVVSIPEVLGAILRNLLQGQGIVRYPVGIGLRKGEVVEVLITESSPAVYARLRELRQPGARVALVYREGSPILPRADFRVQPGDRLLVVGDPRGVEIFVGAVIRGEPTFPRRFGSVGALCRAEDEEALYLKERLKVRDWVEACEDPKGVAEVGVFLARDRDWVRRAFQEGYPFPSFHLRGTHPYRSILVSANTEALSPLLASAMDLARIFGSEVYVLFVSRVEAFMPPEEKELLENLKVLVERARKTSGLEVHLIRKEGNPVRETLRLLKGKFNLLALGYTPGRRTAFFRPYVPQLLAQASPVSTLLVPEVNLER” here?
The protein production was “failed”.

For “MSVLSALQYYFFYPSFFLTVIFPGLIFTLIFLLVTIWFERKAAAIVQLRYGPYYASKRLGGILQLFADAIKFVFSEIIIPNGVNQTLYAISPVLVLIFAFLPMALIPISTIPTQGSILSVYHGIFYDTQIHQGILVPYFIEYNLIGIIALESLYPILVIFLAWNTNNRFAIVGSIREAYLSVSYDVLIIISTLALGLEYHTLDVAKIVTSGIPGFIANPIAAFVFLVAMLIGSSRFPFEIVEAETELVIGPYTEYSGFLFVLTMAGSYVANLVYAILFVDLFLGGWLPFTGFVGAIFTVFKAAIVVFFAVFLRAVYGRYRIDQALRGSWKYFFPLALASLLLGVVVGYLWIR”, which protein production is on record?
Its protein production is “failed”.

For “MSVNDTGHSDNYTWNRQVYHRLKLALSLGLRRQLFLAVCDDLHLRNQVAARLHSTLAYPVGQVLYQSLDGKEASTSAYPRLVTLRLNLNEPNPIAQINQWLANYPPPIVGASKDNPGKPLPIPTFQLVGVEQLTKQTVASQRLFLHYLRLSEQFFAAQESSRFLESSVLLWVSRPWLSAIQQSAPQFWRWRTGVFVFAGEPTPTTQNSGHPERFSNSRSVKLGNLEQSALDELSMEGEVRSPSTTEFNFGDEVSLPTEILGNHPQPKEETPPLISELPPTQQKPQELTVRSSAANSSSLLSLSHVSQELTDLVLATINTKISSEAEDDWQPQELLLEIEELHSQSASGEILAAAYHQLGNLYRLRIEQGQSTLEDLMVAIIAYQESISYDENSPQLPDILNDLGTLYWMLYRTPPNLEEGQTYIEQGIEFYELALKIISPETHPDTYARVHNNLGTAYGDLARFASPAENWQQAVVSYSKALLHRTVESDPLKYAACQNNLGTAYWHLAQYNQPVVHLKKAIASYKQSLAHYNPQDEPLKYGMIQNNVGTAYWNLAQYEQPGENLQLAIDVYSEALKYRTAAMVPNACAATQNNLGTAYWHLANLPQTTKDVRQKLLILCINAYEEAIALAHSLSNVSLSFDLFATHNNLGLAHYQLVTDNYFSGDKGRRSHHLEAALDNHLQALNGLSKQPEAYQATFAYVVKTVRAFHNELGIQGQNLALSKVPGHLLPEILPKL”, which protein production is on record?
Its protein production is “failed”.

With “MSVNGAFSPCVVIPCYNHGAMMASVLVRLAPLALPVFIVDDGSDAATQHVLNLLAAENDGVTLIRLANNSGKGAAVMRGIEAVAQAGFSHALQVDADGQHQIEDAPLLLDEAKTHPDCLISGRPRYDDSVPKSRLYGRYVTHVWVWIETLSLSIKDSMCGFRVYPVAATVSLLSRKSLGRRMDFDTEIMVRLYWAGTPSRFIETAVTYPENGLSHFDALHDNLRISWMHTRLFFGMLPRIPVLLMRQRQQHWAGVSERKGLLGMRFMLAVYQRLGRGVFTLFLWPVIAFYWLTGRTARKASQSWLRQIGEYAHQQDILLPKPLNSYHHFLRFGQAMLDKIASWRGDLHWGRDIDFAPGAQEAIEHGRQKGQLILASHLGDIEVCRALAPQVSGLVINALVFTENSQRFKQVLEEIAPQAGVNLIPVSNIGPDTAIMLQQKLDAGEWVAIVGDRTAVHRQRGGVRRVVWSPFLGKEAPFPQGPFVLAAALRCPVLLMFVIREQKKLRVYCEPFADSITLPRPTRQQALQQVVDRYAERLAHYALKSPLDWFNFFDFWSLPDDDGRTAGKKESLEHHHHHH” as the sequence, how does the protein production read?
Its protein production is “failed”.

For “MSVNPFQTMRARYFLIVFALLTVVARASNELIENTFHMQNSTFINILIFYILPITWIYFAYKKHRVAFSLFINRNETFNLVQVLYITIMLCVFSYGYLILYMYSFAWITPTFIMNALREPIMDSTGGYVYQVIMVVFIAPIIGEFVFRGFLLQRFAAKWGTSIAIIVVAILFALLHVDFLGAIVFSVVLSIVYIRTNSLLMPIAIHMLNNAFVIGASFLINKEEIMSFADFSNYTTFFPGLIIFITGLNLVLIFLFVNRKYWSKEMPAIYVEQEKSFSDVVGSK”, which protein production is on record?
The protein production was “failed”.

With “MSVQLKCDAVNCVYNRSHLCSAEEIEVQGGETTGGDATFCGTFSSKSLGNFVSSLGNMNYSGSLKQAVSAEPIMDPKVHCNAVNCTYNDQRYCHADQVEIRNEVSHTAEELEHHHHHH” as the sequence, how does the protein production read?
Its protein production is “not failed”.

With “MSVWLLQMKTNAIITDITKSIVKMDRILVYRHTNPDPDAIGAQFGLVALLKAAYPEKLVVAMAPVPGHLAWIDTTDEQLVTPQATDLVIAVDCANHERLAGELPTGAFVIKIDHHPNHDPYGQLNWVDETYSSCSEMIYELAQAGCFTVTAAVATKLYAGIIGDTVRFSTPETSTRTLKIASALAATDIDIATISHHEMDLT” as the sequence, how does the protein production read?
The protein production was “failed”.

For “MSYEKEFLKDFEDWVKTQIQVNQLAMATSQEVAQEDGDERAKDAFIRYESKLDAYEFLLGKFDNYKNGKAFHDIPDELFGARHY”, which protein production is on record?
Its protein production is “not failed”.

Which protein production does the source give for “MSYFDQDDKEVLAPNSDVIAATTTTATTATHGIEVATEFKPVEHPVEPLDNDLPIQCPLPEPSILNDGRIWKERVSASMRRKGDLQIVKDEAASESDGSAPKPPRPPQPNRSILPSLSAPEHNLLNLLEECNAMPPVTSKNG” here?
The protein production was “failed”.

With “MSYIPPHKRHSKDPTKPTPVPDSLVTKFKKNLDFKSSTSSVKRNKIIYSGDSISKWFLVGSNGIEDDVPSYVKFVPLSSDSVECRKGEKPSILMNNNVQNVNMNIGERKDERTQWLLVAEKVMEDLVLAYERVKTEMKEHHHVSRLVARFGKIFFYGSQAGPVAECSLKNLNKMFSTDLPMSYLQHIKSNVVPSHGFSIDKEKETYTVKVSHYSRPNATINCKCTRKEDGRLSMYKASLEFYVDLNPVRHLVVDVSCIDKNLDMRLTLTAKREITYLSDKEIGDIKALLESATVDPNVKGGLRWPFGKALSEDGYKEFEVCHVRATIYKNKTLRLRVRETDRFNETTGTGETKREVSLTLKDIDTKIQEQNTERGCVLEMLRDALGTIWDFLHCDAYLT” as the sequence, how does the protein production read?
Its protein production is “not failed”.
